Results: the nanobody polyreactivity screen of Harvey et al. (2022)

test: yeast display, Sf9 membrane polyspecificity reagent, FACS + sequencing; frameworks hold sequencing errors
Method in brief: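 Galactose induction of a Saccharomyces cerevisiae BJ5465 synthetic nanobody display library ran 36–48 hours. The cells were then stained for 1 hour at 4 °C with 10% biotinylated, detergent-solubilized Sf9 membrane reagent, pulled down on streptavidin microbeads and FACS-sorted into low and high (top ~1%) gates on expression and reagent-binding fluorescence. Labels for polyreactivity follow the gate of origin.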

Sequence | polyreactivity (PSR sort gate)
QVQLVETGGGLVQAGGSLRLSCAASGSTFEYYAMGWYRQAPGKERELVAAISSGPSTTYADSVKGRFTISRDNAKNTVYLQMNSLKPEDTAVYYCARRDGTTQALFGYDYWGQGTQVTVSS | low polyreactivity
QVQLVETGGGLVQAGGSLRLSCAASGSTFGYYAMGWYRQAPGKERELVAAITSGGSTYYADSVKGRFTISRDNAKNSVFLQMNSLKPEDTAVYYCAATWYGFAYDYWGQGTQVTVSS | low polyreactivity
QVQLVETGGGLVQAGGSLRLSCAASGSTFYPTYAMGWYRQAPGKERELVATITGSGGSTYYADSVKGRFTISRDNAKNTVYLKMNSLKPEDTAVYYCAADRWYSRYTRYGYWGQGTQVTVSS | low polyreactivity
QVQLVETGGGLVQAGGSLRLSCAASGSTFYRYAMGWYRQAPGKERELVAAITRSGGGTHYADSVKGRFTISRDNAKNTVYLQMNSLKPEDTAVYYCAKRQSGYRYDYWGQGTQVTVSS | low polyreactivity
QVQLVETGGGLVQAGGSLRLSCAASGSTLTYYTMGWYRQAPGKERELVARISWSSGRTYYAVSVKGRFTISRDNAMNTVYLQMNSLKPEDTAVYYCNADRTYYRGLDYWGQGTQVTVSS | high polyreactivity
QVQLVETGGGLVQAGGSLRLSCAASGYIFYPYTMGSYRPAPGKATELVAAITWSGSTYSADSVQGRFTMSRDTAKNTVYLQMKSLKPEDTAVYYCAADFDSYDSYTYLQYDYWGQGTQVTVSS | low polyreactivity
QVQLVETGGGLVQAGGSLRLSCAASVIISSVYAMGWYRQAPGNERELVAAISGSGGSTYYADSVKGRFTISRDNAKNTVYLQMISLKPEDTAVYYCAKGYQYQGNSYGYWGQGTQVTVSS | low polyreactivity
QVQLVETGGGLVQAGGSLRLSCAATEFIFRNYDMGWYRQAPGKERELVASISRGTSTNYADSVKGRFTISRDNAKNTVYLQKNSLKPEDTAVYYCNKRFYYHPFDYWGQGSQVTVSS | high polyreactivity
QVQLVETGGGLVQAGGSLRLSCAATGFTFGYYTMGWYRQAPGKEGELVAAITWRGGSTYYADSVKGRFTISRDNAKNTVYLQMNSLKPEDTAVYYCNAVVLGYYPSGVYPDDEEHDYWGQGTQVTVSS | high polyreactivity
QVQLVETGGGLVQAGGSLRLSCAATGLIFYSYPMGWYRQAPGKERELVAALNGGGGSTYYADSVKGRFTISRDNAKNTVYLQMKSLKPEDTAVYYCAADLYNRGRGSSQSYRTGYDYWGQGTQVTVSS | high polyreactivity
QVQLVETGGGLVQAGGSLRLSCAPSGFTFRRNAMGWYRQAPGKERELVAVITSSARTNYADSVKGRFTISRDNAKNTVYLQMNSLKPEDTAVYYCAARYHYGVWRERHGYWGQGTQVTVSS | high polyreactivity
QVQLVETGGGLVQAGGSLRLSCASSGFIFVRYAMGWYRQAPGKERELVAAITKGGGRTYYADSVKGRFTISRDNAKNTVYLQMNSLKPEDTAVYYCATAGAHGRERDYWGQGTQVTVSS | high polyreactivity
QVQLVETGGGLVQAGGSLRLSSAASGGIFSPNAMGWYRQAPGKEREFVAAISSNGGSTNYADSVKGRFTISRDNAKNTVYLQMNSLKPEDTAVYYCAADYPDHPLWGPEYDYWGQRTQVTVSS | low polyreactivity
QVQLVETGGGLVQAGGSLRLSSAGSGSISYAYAMGWYRQARGKEREFVAAITDSGGSTYYADSVKGRFTISRDNAKNTVYSQMNSLKPEDTAVYYCAAGGPWWSGYYYWGQGTQVTVSS | low polyreactivity
QVQLVETGGGLVQAGGSLRVSCAASGSIFVGYPMGWYRQAPGKERELVAAISSNGGSTYYADSVKGRFTISRDNAKNTVYVQMNSLKPEDTAVYYCAAGVRRVYASGHGAYGYWGQGTQVTVSS | low polyreactivity
QVQLVETGGGLVQAGGSLSLSCAASGYIFEINAKGWYRQAPGKERELVADIRRGDSTNYADSVKGRFTISRDNSMNTVYLQMNSLKPEDTAVYYCAAYHRLFDYDYCGQGTQVTVSS | high polyreactivity
QVQLVETGGGLVQAGGSLSLSCAGSVSTFWFYPMGCYRQATGKEREFVATISRSGGSTHNADSVKGRFTISSDNAKNTVYLQMNSLKPEDTAVYYCAKYQRYYSNDYNYWGQGTQVTVSS | high polyreactivity
QVQLVETGGGLVQAGGTLRLSCAASGRTFSRNAMGCDRPAPGKERELVAAITSGGGTYYADSVKGRFTISRDNAKNTVYLQMNSLKPEDTAVYYCNKKTSAGRVDYWGQGTQVTVSS | high polyreactivity
QVQLVETGGGLVQAGGTLRLSCADSGSIYEDNAKGWYRQAPGKERELDAAITWSGDSTYYADSVKGRFTISRDTEKNTVYLQMNSLKPEDTAVYYCNTYRIFCYSRYYAGYDYWGQGTQVTVSS | low polyreactivity
QVQLVETGRGLVQAGGSLRISCAPCGFTFWRNAMGGYRQAPGKERELVAAINWSGGSPYYADSVKGRFTISRDNAMNTVYLQINSRKADDTAVYYCNRRGQYTFWPIHEYWGQGTQVTVSS | high polyreactivity
QVQLVETGRGLVQAGGSLRLICAASGRTFGYYAMGWYRQAPGKEREFVAAISHSAGSTSYADSVKGRFTISRDNAKNTVYLQMNSLKPEDTAVFYFAAEICYLSVPRYDYWGQGTQVTVSS | low polyreactivity
QVQLVETGRGLVQAGGSLRLSCAASGLTFKFNAMGWYRQAPGKEREFVAAISRSGGRTYYAESVKGRFTISRDNAKNTVYFQMNSLKPEDTAVYFCADEEIVYYPVLFEYDYWGQGTQVTASS | high polyreactivity

Sequence | polyreactivity (PSR sort gate)
QVQLVETGRGLVQAGGSLRLSCAHSGRTFFSYAMGWYRQAPGKEREFVAAITGGGTYYADSVKRRFTISSDNAKNTVYLHMNSLKPEDTAVYYCAAAKRGTDYLSSFWMDYWGQVTQVTVSS | low polyreactivity
QVQLVETGVGIVQAGGSLRLSCASSGSNCPLYAMGWYRQAPGKEREFVAAIRWIGGSTYYADSVKRRFTNSRDYAKNSVYLQMISLKPVDTAVYYCAAVYVVSAFDYWGQGTQVSVSS | low polyreactivity
QVQLVETGVGLVKAGGSLRLSSAASGYIFYYYAMGWYRQERGKERELVAAISTSDTRTFYADSVKGRFSISRDNAKNTVYLQMNSLKPEDTAVYYCAASLYICGPNYGYEYWGLGTQVTVSS | low polyreactivity
QVQLVETGVGLVQAGGSLRLSCAASGLTFPNYDMGWYRQAPGKEMELVAAISSSGGSTYYADSVKGRFTISRDNAKNTVYLQMNSLKPEDTAVYYCATEWSYYNYGYDYWGQGTQVTVSS | low polyreactivity
QVQLVETGVGLVQAGGSLRLSSAASGSIFFTYTMGRYRQAPGKERELVATITYGGGGTYYADSVKGRFTISRDNAKNTVYLQMNSLKAEDTAVYYCAKDHATVLSRWYRGMDYWGQGTQVTVSS | low polyreactivity
QVQLVETRGGLVQAGGILRFSCAASGFTFSSNDMGWYRQAPAKEREFVAVIDSGDITNYADSVKGRFTISRDNAKNTVYLQMNSLKPEDTAVYYCAARYYAAGIGSRYDYWGQGTQVTVSS | high polyreactivity
QVQLVETVGGLVQAGGSLRLRCAASGSIFLYNAMGWYRQAPGKERELFAVINGRGGTYYADSVKGRFTISRDNAKNTVYLQINSLKPEDTAVYYCATGYTPSAWYDSVRFEDRDSWGQGTQVTVSS | low polyreactivity
QVQLVETVGGLVQAGGSLRLSCAASGSTFYRYAMGWYRQAPGKERELVAAISSSGGSTYYADSVKGRFTISRDNAKNSVYLQMNSLKPEDSAVYYCNAARNFRYDYWGQGTQVTVSS | high polyreactivity
QVQLVETWGGLVQAGGTLRLSCAASGSIFSPYAMGWYRQAPGKERELVAAISRNGGTTYYADSVKGRFTISRDNAKNTVYLQMNSLKPEDTAVYYCARLYYTQKDSKTGYGYWGQGTQVTVSS | high polyreactivity
QVQLVEYVGGLVQAGGSLRLSCAASGRIFQYYARGWYRQAPGKERELVAAINSSGGRTYYADSVKGRFTISRDNAKNTVYLQMNSLKPEDTAVYDCNAVLSTRGMDYWGQGTQVTVSS | high polyreactivity
QVQLVEYWGALVQAGGTLRLSCAASGRIFGTNALAWNRQAPGKERELEATITRGGGNTYYADSVKGRFTISRDKAKYTVYLQMNSLKPEDTAVYYCAAKFHRFAWYSHYDDWGQGSQVTVSS | low polyreactivity
QVQLVGSGGGLLQAGASLRLSCAASGRIFRAYAMGWYRQAPGKERELVAAISWRSGSTYYADSVKGRFTISRDNAKTTVYLQMNSLKPEDTAVYYCAAYTNRVVNGYGYWGQGTQVTVSS | high polyreactivity
QVQLVKSGGGLVQAGGSLRLSCAASGIIFTDYGMGWYRQAPGKERELVAVISRGGTTKYADSVKGRFTISRDNAKNTVYLQMNSLQPEDTAVYYCAARTWAGRWYGLDFWGQGTQVTVSS | high polyreactivity
QVQLVKSGGGLVQAGGSLRLSCAASGSIFGYNTKGWYRQAPGKERELVATITYRGGSTYYADSVKGRFTISRDNAKNTVYLQMNRLKPEDTAVYYCARRVTRYPDTTWVSAGDYWGQGTQVTVSS | high polyreactivity
QVQLVKSGGGLVQAGGSLRLSCAASGSTFYNAMGWYRQAPGKERELVAAISIGGSTYYADSVKGRFTNSRDNAKNTVYLQMNSLKPEDTAVYYCNTETGPSPVPVYDTEFDSWGQGTQVTVSS | low polyreactivity
QVQLVQAGGGLVQAGGILRLSCAASGFTFQEYAMGWYRQAPGKAREFVAAITYSGGSTYADSVKGRFTISRDNAKNTVYLQMNSLKPEDTAVYYCNAQVYYSVRGYPYGYYRNDYWGQGTQVTVSS | low polyreactivity
QVQLVQSCRVLLQARGSHTLSCADSGTTFGINANGCYTHSPGKERELVAAITFISGSTNYADSVKGRFTISRDNAKNTVYLQMNSLKPEDTAVYYCAADSVYYAGYDVDYWGQGTQVTVSS | low polyreactivity
QVQLVQSGGGLVQAGGRLRLSSAASGRTFEPNAMGWYRQAPGKERELVAAITNGGSTSYADSVKGRFTISRDNAKNSVYLQMNSLKPEDTAVYDFAGDLGRNLLHTYYYWGQGTQVTVSS | low polyreactivity
QVQLVQSGGGLVQAGGSLRLICAASGRTFYGNAMGWYRQAPGKERELVAAISRSGGRTYYADSVKGRFTISRDNAKNTVYLQMISLKTEDTAVYYCAKDYYYPSHTYGYWGQGTQVTVST | high polyreactivity
QVQLVQSGGGLVQAGGSLRLISAASGSIFRYNAMGWYRHAPGKEREFVAAITRSGGSTYADSVKGRFTISRDNAKNTLYLQIHSLKPEDTAVYYCAATFKWYSHSKPRFDYWGHGTQVTVSS | low polyreactivity
QVQLVQSGGGLVQAGGSLRLSCAASGFIIWDNAMGCYRQAPGKERELVAAISDSGGDTYYADSVKGRFTISRDNAKNTVYLQMNSLKPEDTAVYYCASDVELWVFRGDQYDYWGQGTQVTVSS | low polyreactivity
